T1: human FcγRIIa (131H), His- and GST-tagged (human, UniProt P12318 34-217)
T1 construct: also called H131 FcγRIIa; HIIa; not shown: 6xHis and GST tags of the pTT5 vector
T1 sequence (looked up): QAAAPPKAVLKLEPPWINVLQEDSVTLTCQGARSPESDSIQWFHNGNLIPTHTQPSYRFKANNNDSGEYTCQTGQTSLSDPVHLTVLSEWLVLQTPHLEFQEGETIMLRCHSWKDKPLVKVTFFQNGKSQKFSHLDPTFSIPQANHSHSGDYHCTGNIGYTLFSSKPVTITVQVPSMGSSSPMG

T2: human FcγRIIa (131R), His- and GST-tagged (human, UniProt P12318 34-217)
T2 construct: Expressed in HEK293T cells, purified by nickel chromatography; also called R131 FcγRIIa; not shown: 6xHis and GST tags of the pTT5 vector
T2 sequence (looked up): T1 sequence (looked up) with H134R

T3: human FcγRIIb receptor protein (R&D Systems) (human, UniProt P31994 46-217)
T3 construct: Bought protein injected over captured antibody in Biacore; also called CD32b
T3 sequence (looked up): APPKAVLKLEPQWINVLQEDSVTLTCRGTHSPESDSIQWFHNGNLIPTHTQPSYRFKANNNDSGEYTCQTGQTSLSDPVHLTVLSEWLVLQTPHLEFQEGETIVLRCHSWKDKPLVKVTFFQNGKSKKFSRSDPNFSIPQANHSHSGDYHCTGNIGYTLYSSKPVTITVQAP

T4: cynoFcγRIIb (Macaca fascicularis, UniProt A0A140HDP4)
T4 construct: extracellular region, C-terminal His- and GST-tag; also called cynomolgus monkey FcγRIIb
T4 sequence (receptor extracellular region): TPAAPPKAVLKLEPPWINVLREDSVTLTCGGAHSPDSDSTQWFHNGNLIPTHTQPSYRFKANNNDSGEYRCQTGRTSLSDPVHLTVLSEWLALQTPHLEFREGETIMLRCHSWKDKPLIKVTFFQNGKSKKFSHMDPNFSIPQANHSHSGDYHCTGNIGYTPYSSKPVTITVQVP

T5: mFcγRIIb (Mus musculus, UniProt P08101)
T5 construct: extracellular region, C-terminal His- and GST-tag; also called mouse FcγRII
T5 sequence (receptor extracellular region, looked up): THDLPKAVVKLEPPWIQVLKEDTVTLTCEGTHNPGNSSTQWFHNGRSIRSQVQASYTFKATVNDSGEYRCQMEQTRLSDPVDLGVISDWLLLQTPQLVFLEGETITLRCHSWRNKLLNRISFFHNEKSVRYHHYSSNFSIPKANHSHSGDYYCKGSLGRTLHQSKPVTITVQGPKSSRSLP

T6: mFcγRIV
T6 construct: also called mouse FcγRIV; not shown: C-terminal His and GST tags (named only on our card)
T6 chain: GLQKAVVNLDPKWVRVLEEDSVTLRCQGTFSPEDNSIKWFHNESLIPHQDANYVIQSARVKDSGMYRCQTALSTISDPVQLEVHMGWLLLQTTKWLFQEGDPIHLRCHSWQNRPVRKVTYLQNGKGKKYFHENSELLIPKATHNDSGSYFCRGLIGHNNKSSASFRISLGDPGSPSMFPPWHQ

B1: A327N (antibody, human IgG1, kappa)
heavy: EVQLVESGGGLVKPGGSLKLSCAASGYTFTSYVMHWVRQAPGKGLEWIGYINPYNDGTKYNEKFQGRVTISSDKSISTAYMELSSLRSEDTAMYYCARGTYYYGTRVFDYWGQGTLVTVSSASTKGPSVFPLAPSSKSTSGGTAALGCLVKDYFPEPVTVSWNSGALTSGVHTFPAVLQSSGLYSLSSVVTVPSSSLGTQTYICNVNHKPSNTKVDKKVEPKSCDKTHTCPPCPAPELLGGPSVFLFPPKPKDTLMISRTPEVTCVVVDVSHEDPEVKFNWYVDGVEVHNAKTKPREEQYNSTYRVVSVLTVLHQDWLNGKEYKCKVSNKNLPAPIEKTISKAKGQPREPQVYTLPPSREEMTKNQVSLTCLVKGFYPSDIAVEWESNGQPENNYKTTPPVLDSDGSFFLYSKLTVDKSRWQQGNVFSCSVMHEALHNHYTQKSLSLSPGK
light: DIVMTQSPATLSLSPGERATLSCRSSKSLQNVNGNTYLYWFQQKPGQSPQLLIYRMSNLNSGVPDRFSGSGSGTEFTLTISSLEPEDFAVYYCMQHLEYPITFGAGTKLEIKRTVAAPSVFIFPPSDEQLKSGTASVVCLLNNFYPREAKVQWKVDNALQSGNSQESVTEQDSKDSTYSLSSTLTLSKADYEKHKVYACEVTHQGLSSPVTKSFNRGEC
notes: HuAM4G7 anti-CD19 IgG1 (m1) with this Fc substitution, EU index; copies: 2 + 2
B2: L235A (antibody, human IgG1, kappa)
heavy: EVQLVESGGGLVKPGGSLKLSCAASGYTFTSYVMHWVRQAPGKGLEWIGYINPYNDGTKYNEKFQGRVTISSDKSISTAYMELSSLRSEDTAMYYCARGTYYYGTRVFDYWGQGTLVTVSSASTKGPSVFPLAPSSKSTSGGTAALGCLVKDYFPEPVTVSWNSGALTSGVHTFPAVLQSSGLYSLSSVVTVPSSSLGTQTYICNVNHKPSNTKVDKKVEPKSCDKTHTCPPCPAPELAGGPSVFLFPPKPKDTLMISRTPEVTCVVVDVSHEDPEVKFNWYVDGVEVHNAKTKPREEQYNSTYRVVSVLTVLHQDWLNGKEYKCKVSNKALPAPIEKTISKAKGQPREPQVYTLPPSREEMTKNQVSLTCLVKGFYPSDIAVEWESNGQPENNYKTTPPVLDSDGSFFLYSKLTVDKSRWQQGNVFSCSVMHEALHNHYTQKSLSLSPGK
light: B1 light
notes: as for B1
B3: V266M (antibody, human IgG1, kappa)
heavy: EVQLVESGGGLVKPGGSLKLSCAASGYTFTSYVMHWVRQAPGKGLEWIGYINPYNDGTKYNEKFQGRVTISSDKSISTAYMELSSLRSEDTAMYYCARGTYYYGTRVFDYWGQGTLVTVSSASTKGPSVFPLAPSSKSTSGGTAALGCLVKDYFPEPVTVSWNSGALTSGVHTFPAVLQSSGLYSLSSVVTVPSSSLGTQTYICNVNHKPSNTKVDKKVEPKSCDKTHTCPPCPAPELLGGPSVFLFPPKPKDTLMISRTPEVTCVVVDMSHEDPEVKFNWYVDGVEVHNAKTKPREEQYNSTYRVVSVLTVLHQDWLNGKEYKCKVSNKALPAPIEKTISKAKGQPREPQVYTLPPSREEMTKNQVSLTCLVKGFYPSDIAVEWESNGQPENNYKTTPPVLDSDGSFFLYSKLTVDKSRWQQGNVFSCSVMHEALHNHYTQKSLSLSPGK
light: B1 light
notes: as for B1
B4: anti-CD19 antibody HuAM4G7 IgG1 S267G (antibody)
heavy: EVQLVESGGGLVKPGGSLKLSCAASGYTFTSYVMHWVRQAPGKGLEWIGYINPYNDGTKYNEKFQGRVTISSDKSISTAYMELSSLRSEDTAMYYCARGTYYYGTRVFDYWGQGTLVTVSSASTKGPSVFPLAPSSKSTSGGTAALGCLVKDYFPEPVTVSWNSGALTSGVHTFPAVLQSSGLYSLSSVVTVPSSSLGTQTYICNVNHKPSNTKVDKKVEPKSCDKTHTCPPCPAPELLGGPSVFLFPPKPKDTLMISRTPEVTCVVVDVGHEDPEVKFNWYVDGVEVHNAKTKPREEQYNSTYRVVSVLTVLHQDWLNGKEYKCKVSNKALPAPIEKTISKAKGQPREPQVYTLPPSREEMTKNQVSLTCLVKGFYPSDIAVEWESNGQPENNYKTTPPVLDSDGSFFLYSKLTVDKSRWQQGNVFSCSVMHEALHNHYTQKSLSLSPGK
light: B1 light
notes: Positions in EU numbering; copies: 2 + 2
B5: L234N (antibody, human IgG1, kappa)
heavy: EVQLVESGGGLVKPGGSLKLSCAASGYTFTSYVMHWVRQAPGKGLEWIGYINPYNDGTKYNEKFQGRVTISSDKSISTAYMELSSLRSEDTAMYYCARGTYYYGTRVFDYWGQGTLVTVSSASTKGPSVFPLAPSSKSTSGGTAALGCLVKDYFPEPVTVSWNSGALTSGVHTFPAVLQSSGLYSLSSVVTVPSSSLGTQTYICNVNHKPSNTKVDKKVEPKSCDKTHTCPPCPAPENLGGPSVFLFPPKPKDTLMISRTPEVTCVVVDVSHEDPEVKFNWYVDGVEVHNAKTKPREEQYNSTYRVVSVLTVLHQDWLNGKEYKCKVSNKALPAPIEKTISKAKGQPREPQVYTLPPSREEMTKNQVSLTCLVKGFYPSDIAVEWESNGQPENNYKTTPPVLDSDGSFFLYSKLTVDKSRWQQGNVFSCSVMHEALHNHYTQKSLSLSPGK
light: B1 light
notes: as for B1
B6: S298D (antibody, human IgG1, kappa)
heavy: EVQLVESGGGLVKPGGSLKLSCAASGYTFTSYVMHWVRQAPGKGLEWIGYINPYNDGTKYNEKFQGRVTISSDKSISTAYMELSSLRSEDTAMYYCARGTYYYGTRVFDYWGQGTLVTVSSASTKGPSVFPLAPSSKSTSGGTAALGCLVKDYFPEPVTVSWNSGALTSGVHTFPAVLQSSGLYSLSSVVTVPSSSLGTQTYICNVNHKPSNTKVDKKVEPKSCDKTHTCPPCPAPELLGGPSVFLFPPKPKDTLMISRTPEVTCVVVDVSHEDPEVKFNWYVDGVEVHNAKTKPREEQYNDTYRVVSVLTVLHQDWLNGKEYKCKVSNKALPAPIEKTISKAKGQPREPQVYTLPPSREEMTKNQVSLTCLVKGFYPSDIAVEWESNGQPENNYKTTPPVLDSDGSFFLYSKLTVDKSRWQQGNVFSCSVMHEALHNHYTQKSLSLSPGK
light: B1 light
notes: as for B1
B7: L235N (antibody, human IgG1, kappa)
heavy: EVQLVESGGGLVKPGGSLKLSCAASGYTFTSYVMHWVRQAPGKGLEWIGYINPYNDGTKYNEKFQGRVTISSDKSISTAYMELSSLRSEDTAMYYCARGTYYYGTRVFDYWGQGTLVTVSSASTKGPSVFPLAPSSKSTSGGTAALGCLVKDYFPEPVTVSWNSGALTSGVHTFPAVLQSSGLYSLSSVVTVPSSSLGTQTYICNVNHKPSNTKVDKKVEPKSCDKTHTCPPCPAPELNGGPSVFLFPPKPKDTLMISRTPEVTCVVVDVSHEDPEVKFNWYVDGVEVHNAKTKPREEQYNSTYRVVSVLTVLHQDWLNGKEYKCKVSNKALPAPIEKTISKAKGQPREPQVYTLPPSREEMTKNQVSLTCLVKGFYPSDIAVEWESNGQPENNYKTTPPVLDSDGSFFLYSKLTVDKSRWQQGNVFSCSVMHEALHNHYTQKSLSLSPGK
light: B1 light
notes: as for B1
B8: A327Q (antibody, human IgG1, kappa)
heavy: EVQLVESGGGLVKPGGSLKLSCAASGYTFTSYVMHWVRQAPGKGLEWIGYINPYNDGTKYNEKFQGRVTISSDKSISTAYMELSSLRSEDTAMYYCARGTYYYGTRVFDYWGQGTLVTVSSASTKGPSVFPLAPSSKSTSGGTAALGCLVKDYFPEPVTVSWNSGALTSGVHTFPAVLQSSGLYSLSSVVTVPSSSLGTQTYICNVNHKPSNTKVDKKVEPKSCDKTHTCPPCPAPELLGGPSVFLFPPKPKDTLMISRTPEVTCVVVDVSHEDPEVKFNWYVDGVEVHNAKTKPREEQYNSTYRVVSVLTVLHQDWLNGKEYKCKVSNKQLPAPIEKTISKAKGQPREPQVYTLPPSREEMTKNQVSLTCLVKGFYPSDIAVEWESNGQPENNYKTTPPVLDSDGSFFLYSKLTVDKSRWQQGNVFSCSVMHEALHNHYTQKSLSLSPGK
light: B1 light
notes: as for B1
B9: L235E (antibody, human IgG1, kappa)
heavy: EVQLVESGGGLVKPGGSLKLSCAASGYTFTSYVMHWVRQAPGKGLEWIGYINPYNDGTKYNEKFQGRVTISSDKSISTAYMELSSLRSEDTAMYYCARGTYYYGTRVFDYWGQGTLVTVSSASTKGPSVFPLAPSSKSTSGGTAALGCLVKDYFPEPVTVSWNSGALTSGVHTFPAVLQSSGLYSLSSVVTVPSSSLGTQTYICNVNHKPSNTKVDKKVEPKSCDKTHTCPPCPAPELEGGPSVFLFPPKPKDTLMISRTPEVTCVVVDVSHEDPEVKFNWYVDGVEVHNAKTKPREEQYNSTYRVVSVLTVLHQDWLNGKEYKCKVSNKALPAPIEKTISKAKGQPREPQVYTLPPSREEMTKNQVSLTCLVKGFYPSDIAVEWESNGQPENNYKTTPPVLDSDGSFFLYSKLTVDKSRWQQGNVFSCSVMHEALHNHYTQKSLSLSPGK
light: B1 light
notes: as for B1
B10: S298E (antibody, human IgG1, kappa)
heavy: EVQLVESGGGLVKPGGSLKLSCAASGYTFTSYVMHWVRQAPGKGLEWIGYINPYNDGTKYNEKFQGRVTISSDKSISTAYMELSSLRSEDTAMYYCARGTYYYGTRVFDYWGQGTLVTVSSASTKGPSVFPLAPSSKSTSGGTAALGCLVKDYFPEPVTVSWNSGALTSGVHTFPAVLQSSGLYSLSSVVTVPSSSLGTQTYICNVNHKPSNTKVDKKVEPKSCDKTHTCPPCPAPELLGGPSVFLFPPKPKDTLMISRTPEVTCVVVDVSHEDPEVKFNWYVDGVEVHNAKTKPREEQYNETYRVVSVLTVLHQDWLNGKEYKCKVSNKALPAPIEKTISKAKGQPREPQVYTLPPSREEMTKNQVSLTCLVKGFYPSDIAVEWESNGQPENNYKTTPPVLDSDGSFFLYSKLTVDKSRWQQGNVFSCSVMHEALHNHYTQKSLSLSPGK
light: B1 light
notes: as for B1

This note sets out measurements from US20130315910A1 (Xencor, published 2013).

Residue numbers refer to the chain shown, from its start.
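For Fold vs WT IgG1 (off-rate) in this document: fold improvement over WT IgG1 so higher means slower dissociation than WT.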

T7 sequence (P12314 16-288 limits assumed): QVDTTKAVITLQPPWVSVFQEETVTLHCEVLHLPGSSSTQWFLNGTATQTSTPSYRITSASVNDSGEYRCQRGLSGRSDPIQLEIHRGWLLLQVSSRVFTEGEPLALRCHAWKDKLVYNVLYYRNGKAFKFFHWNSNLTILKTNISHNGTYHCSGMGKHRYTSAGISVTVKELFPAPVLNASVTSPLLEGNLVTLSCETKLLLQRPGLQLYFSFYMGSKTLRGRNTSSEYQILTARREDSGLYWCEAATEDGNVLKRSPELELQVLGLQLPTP
T9 sequence (Q8SPW2 17-208): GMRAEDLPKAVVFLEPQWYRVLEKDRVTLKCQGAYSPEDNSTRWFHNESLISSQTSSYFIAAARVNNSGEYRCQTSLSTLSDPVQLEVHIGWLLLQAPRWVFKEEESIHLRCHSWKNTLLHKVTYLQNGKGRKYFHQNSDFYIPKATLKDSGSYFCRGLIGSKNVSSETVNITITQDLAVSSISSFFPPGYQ

One experiment concerns the target T1, human FcγRIIa (131H), His- and …. The experiment can be described thus: SPR. In general terms: Surface plasmon resonance follows binding to a sensor surface in real time, without labels.
Turning to B1, the binding result was “no binding”.
As to B2, the “Fold vs WT IgG1” value stood at 0.0486 fold and binding was put at a Kd of 13300 nM.
Take B3: the “Fold vs WT IgG1” value was 1.17 fold and the Kd came out at 553 nM.

A further experiment has as its target T7, human FcγRI receptor protein (R&D Systems) (human, UniProt P12314 16-288).
T7 construct: also called soluble FcγRI; solFcγRI
The experiment can be described thus: SPR.
For the molecule B1, the “Fold vs WT IgG1” value worked out at 0.0279 fold and the Kd is 11.8 nM.
With B4, the affinity, expressed as Kd, was 0.626 nM.
For B2, the “Fold vs WT IgG1” value is 0.0179 fold and the Kd is 18.4 nM.
In the case of B3, the “Fold vs WT IgG1” value stood at 1.25 fold and the Kd was found to be 0.264 nM.

For another experiment, the target named is T2, human FcγRIIa (131R), His- and …. The experiment can be described thus: SPR.
As for B1, the “Fold vs WT IgG1” value was 0.609 fold and the Kd worked out at 1410 nM.
Consider B5, for which the binding result is “no binding”.
As for B6, the “Fold vs WT IgG1” value came out at 1.45 fold and binding was put at a Kd of 592 nM.
On the same counts, the results for B7 are 0.0356 fold and 24100 nM.
B4 returned a Kd of 517 nM.
In the case of B8, the “Fold vs WT IgG1” value stood at 0.634 fold and the Kd was found to be 1350 nM.
In the case of B2, the “Fold vs WT IgG1” value amounted to 0.166 fold and the dissociation constant (Kd) was 5180 nM.
As to B9, the “Fold vs WT IgG1” value turned out to be 0.333 fold and binding was characterised by a dissociation constant (Kd) of 2580 nM.
On the same counts, the results for B3 are 3.13 fold and 274 nM.
Regarding B10, the binding result is recorded as “no binding”.

For a further experiment, the target named is T3, human FcγRIIb receptor protein (R&D …). The experiment can be described thus: SPR.
Regarding B1, the “Fold vs WT IgG1” value is 0.843 fold and the affinity, expressed as Kd, was 1740 nM.
Take B5: the binding result was “no binding”.
For the molecule B6, the “Fold vs WT IgG1” value stood at 0.797 fold and the Kd is 1840 nM.
As for B7, the “Fold vs WT IgG1” value is 0.147 fold and the Kd stood at 10000 nM.
In the case of B4, binding was put at a Kd of 1450 nM.
For B8, the “Fold vs WT IgG1” value was determined as 0.011 fold and the Kd stood at 134000 nM.
For B2, in that order: 0.351 fold and 4180 nM.
With B9, the “Fold vs WT IgG1” value was determined as 0.55 fold and the Kd was determined as 2670 nM.
B3: the “Fold vs WT IgG1” value is 1.91 fold and binding was characterised by a dissociation constant (Kd) of 770 nM.
Turning to B10, the binding result is “no binding”.

A further experiment deals with T8, human FcγRIIIa (158V), His- and GST-tagged (human, UniProt P08637 17-208).
T8 construct: also called V158 FcγRIIIa; VIIIa; not shown: 6xHis and GST tags of the pTT5 vector
T8 sequence (P08637 17-208 F176V): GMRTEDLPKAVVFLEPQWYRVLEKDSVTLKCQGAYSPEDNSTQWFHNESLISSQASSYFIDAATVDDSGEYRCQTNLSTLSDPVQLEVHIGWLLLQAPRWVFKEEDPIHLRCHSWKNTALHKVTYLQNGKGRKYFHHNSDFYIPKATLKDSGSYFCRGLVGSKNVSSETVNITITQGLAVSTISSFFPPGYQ
The experiment can be described thus: SPR.
Regarding B1, the binding result was “no binding”.
Take B2: the “Fold vs WT IgG1” value is 0.314 fold and the Kd turned out to be 609 nM.
On the same counts, the results for B3 are 0.547 fold and 350 nM.

The next experiment deals with T4, cynoFcγRIIb. Description: SPR, off-rate. The protocol: (§1) Variants were screened for receptor affinity using Biacore™ technology, also referred to as Biacore herein, a surface plasmon resonance (SPR) based technology for studying biomolecular interactions in real time. SPR measurements were performed using a Biacore 3000 instrument (Biacore, Piscataway, N.J.). A protein A/G (Pierce Biotechnology) CM5 biosensor chip (Biacore) was generated using a standard primary amine coupling protocol. All measurements were performed using HBS-EP buffer (10 mM HEPES pH 7.4, 0.15 M NaCl, 3 mM EDTA, 0.005% vol/vol surfactant P20, Biacore). Antibodies at 20 nM or 50 nM in HBS-EP buffer were immobilized on the protein A/G surface and FcγRs were injected. After each cycle, the surface was regenerated by injecting glycine buffer (10 mM, pH 1.5). Data were processed by zeroing time and response before the injection of FcγR and by subtracting appropriate nonspecific signals (response of reference channel and injection of running buffer). Kinetic analyses were performed by global fitting of binding data with a 1:1 Langmuir binding model using BIAevaluation software (Biacore).
(§2) Variant antibodies were tested for their affinity to mouse or cynologous monkey FcγRs using Biacore SPR as described above. Specifically, antibodies were first immobilized on a protein A/G chip to high density, and then followed by injections of the extracellular domain of the mouse or cynologous monkey FcγR of interest. Both association and dissociation phases were tracked in real time using the Biacore technology.
On to B1, for which the binding result is recorded as “no binding”.
For the molecule B5, the binding result is given as “no binding”.
With B6, the binding result is on record as “no binding”.
On the same count and under the same terms, for B7 the value was “no binding”; for B4, “no binding”.
Same read-out and setting: next, B8: “no binding”; B2: “no binding”; B9: “no binding”.
Consider B3, for which the binding result is “no binding”.
Same read-out and setting: for B10 the value was “no binding”.

In a further experiment the target is T5, mFcγRIIb. The experiment can be described thus: SPR, off-rate. The protocol: as §1, §2
Regarding B5, the binding result is “no binding”.
Still for that read-out and setting: for B6 the value was “no binding”; for B7, “no binding”; for B4, “no binding”.
Same read-out and setting: for B8 the value was “no binding”.
On the same count and under the same terms, for B2 the value was “no binding”; for B9, “no binding”; for B10, “no binding”.

A further experiment has as its target T5, mFcγRIIb. The experiment can be described thus: SPR.
For B1, the “Fold vs WT IgG1 (off-rate)” value came to 0.643 fold.
Regarding B3, the “Fold vs WT IgG1 (off-rate)” value amounted to 2.04 fold.

The target of the next experiment is T6, mFcγRIV. The experiment can be described thus: SPR.
For B1, the “Fold vs WT IgG1 (off-rate)” value came to 1.16 fold.
Regarding B5, the “Fold vs WT IgG1 (off-rate)” value is 0.2 fold.
The same measure, in the same setting: for B6 the value was 0.618 fold.
For the molecule B7, the “Fold vs WT IgG1 (off-rate)” value amounted to 0.241 fold.
With B8, the “Fold vs WT IgG1 (off-rate)” value is 0.361 fold.
Same read-out and setting: next, B2: 0.496 fold; B9: 0.857 fold.
Still for that read-out and setting: next, B10: 0.136 fold.

Another experiment has as its target T9, cynoFcγRIIIa (Macaca fascicularis, UniProt Q8SPW2).
T9 construct: extracellular region, C-terminal His- and GST-tag; also called cynomolgus monkey FcγRIIIa
Description: SPR.
With B1, the “Fold vs WT IgG1 (off-rate)” value is 0.313 fold.
On the same count and under the same terms, for B5 the value was 0.371 fold; for B6, 0.309 fold; for B7, 0.351 fold.
With B8, the “Fold vs WT IgG1 (off-rate)” value stood at 0.223 fold.
The same measure, in the same setting: next, B2: 0.53 fold.
B9: the “Fold vs WT IgG1 (off-rate)” value stood at 0.367 fold.
On to B3, for which the “Fold vs WT IgG1 (off-rate)” value stood at 0.433 fold.
Still for that read-out and setting: next, B10: 0.046 fold.

One may read the Kd as the concentration at which binding is half-saturated. High values mean lower affinity, low ones higher affinity.
